How the values were obtained:
Assay in all cases: cleavage_in_vitro
[1] = test system: T1, OMNI-95 (metagenomic, unknown); details: TXTL; PAM NNGYAANN
T1 sequence: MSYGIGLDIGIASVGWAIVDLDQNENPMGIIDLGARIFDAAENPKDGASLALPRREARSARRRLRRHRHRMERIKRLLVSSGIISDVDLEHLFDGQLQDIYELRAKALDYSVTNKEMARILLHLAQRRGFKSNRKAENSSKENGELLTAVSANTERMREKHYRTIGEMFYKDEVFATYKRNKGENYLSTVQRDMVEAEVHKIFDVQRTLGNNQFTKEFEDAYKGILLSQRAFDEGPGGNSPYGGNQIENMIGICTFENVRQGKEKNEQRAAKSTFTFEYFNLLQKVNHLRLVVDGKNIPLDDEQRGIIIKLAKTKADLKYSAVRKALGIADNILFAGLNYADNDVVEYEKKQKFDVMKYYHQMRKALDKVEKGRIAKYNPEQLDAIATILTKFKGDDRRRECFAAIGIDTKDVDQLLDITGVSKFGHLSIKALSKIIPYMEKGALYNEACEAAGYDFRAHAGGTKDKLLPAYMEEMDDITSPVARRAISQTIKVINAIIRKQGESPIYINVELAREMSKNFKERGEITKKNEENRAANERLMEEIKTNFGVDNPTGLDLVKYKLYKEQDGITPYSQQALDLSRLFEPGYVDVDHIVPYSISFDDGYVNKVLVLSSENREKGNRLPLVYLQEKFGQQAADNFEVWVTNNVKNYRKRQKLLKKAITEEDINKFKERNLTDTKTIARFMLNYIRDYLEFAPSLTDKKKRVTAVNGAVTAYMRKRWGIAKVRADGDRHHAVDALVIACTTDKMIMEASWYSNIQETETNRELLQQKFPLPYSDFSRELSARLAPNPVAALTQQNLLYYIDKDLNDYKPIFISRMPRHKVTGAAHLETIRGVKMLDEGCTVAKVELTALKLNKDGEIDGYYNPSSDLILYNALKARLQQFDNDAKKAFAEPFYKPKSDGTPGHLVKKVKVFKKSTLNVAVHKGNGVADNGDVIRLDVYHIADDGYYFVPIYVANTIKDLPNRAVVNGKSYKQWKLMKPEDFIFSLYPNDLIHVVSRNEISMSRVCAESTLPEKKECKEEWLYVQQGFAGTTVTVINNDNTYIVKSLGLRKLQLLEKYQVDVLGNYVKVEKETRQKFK

[2] = test system: T2, OMNI-138 (metagenomic, unknown); details: TXTL; PAM NNNNGTKA
T2 sequence: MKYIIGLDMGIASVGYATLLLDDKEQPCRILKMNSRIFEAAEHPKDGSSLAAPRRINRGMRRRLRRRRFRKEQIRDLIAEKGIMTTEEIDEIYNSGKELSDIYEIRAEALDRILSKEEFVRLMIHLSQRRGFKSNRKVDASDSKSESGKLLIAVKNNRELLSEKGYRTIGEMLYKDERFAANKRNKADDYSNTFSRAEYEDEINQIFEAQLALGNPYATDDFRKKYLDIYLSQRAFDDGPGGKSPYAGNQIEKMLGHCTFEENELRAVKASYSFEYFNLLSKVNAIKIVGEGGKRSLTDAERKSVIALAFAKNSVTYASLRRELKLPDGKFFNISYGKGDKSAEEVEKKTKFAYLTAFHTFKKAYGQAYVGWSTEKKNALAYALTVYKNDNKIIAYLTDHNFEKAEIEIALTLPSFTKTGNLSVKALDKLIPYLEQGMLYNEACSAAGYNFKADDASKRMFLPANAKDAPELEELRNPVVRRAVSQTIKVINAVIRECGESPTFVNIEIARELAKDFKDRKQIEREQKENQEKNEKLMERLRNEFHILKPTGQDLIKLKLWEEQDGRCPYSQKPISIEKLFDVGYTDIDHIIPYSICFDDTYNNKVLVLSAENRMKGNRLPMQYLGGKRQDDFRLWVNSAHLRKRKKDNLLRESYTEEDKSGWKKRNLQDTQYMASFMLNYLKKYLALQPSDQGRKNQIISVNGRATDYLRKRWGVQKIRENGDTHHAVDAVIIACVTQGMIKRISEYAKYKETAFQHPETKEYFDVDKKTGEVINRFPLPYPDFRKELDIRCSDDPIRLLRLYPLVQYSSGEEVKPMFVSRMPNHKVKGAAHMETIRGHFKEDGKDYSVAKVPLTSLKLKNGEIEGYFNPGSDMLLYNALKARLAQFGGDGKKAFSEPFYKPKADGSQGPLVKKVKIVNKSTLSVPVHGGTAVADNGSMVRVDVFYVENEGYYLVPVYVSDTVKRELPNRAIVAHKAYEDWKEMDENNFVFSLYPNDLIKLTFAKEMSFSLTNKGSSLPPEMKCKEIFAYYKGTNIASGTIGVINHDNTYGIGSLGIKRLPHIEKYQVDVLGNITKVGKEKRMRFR

[3] = test system: T3, OMNI-94 (metagenomic, unknown); details: TXTL; PAM NNRRAYGN
T3 sequence: T1 sequence

[4] = test system: T4, OMNI-137 (metagenomic, unknown); details: TXTL; PAM NNRCRGNN
T4 sequence: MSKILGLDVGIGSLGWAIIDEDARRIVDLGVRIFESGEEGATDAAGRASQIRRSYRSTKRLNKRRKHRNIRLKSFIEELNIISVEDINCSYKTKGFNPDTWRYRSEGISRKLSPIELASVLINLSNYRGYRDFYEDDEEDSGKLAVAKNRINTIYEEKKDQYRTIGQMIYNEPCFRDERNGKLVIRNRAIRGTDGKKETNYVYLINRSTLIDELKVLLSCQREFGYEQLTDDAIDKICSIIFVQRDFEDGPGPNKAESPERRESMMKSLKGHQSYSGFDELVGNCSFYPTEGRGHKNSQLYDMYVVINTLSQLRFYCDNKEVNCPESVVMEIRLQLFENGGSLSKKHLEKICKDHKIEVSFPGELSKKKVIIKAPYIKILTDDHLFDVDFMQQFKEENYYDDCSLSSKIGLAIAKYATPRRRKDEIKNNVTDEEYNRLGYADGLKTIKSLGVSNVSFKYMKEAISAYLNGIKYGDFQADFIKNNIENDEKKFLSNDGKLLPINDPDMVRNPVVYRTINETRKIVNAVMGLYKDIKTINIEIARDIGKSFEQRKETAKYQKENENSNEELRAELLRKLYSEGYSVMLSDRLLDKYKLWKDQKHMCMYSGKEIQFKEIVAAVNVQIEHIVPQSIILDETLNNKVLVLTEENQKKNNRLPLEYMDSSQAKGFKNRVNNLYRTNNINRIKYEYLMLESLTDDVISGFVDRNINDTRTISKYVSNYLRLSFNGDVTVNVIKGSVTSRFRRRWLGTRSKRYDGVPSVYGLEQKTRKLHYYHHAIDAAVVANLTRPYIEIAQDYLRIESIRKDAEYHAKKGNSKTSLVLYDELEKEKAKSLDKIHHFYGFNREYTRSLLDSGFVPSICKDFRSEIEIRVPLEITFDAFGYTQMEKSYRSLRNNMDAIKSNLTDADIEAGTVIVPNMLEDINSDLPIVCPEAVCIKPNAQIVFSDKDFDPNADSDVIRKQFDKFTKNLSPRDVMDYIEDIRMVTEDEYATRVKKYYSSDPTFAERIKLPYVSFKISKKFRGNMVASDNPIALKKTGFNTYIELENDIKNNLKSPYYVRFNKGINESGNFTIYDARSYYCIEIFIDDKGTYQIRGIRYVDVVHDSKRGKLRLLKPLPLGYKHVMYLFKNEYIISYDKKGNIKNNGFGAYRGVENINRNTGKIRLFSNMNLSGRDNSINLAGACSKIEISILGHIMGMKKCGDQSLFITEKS

**Q.** “GGAAGAGCAGAGCCUUGGUCUCAUUUUAGUACCUGGAGAAAGAAAUUUCUUCAGACCUACUAAAACAAGGCUUUAUGCCGAAAGUUUUUUUGAUUUGAAUUGAAUGAGUUGAAAGAGGAUGCCGACGGGUGUCCUCUUUUUUU / GGAAGAGCAGAGCCTTGGTCTCNNNNNNNN / NNNNNNNNGAGACCAAGGCTCTGCTCTTCC [T2 sgRNA 6 V1 ; T2 protospacer + 8N PAM library (pbPOS T2)]” was tested. Which activity (1-depletion score) [1] did it give?
**A.** Its activity (1-depletion score) is 0.77.

**Q.** Which activity (1-depletion score) [2] does the source give for “GGAAGAGCAGAGCCUUGGUCUCGUUGUAGUUCCCUAAUUAUGAAAACAAUUAGGUUACUAUGAUAAGGUAGUAUACCGCAAAGCUCUAACGCCUCAUCUUAAUGAUGGGGCGUUAUCUUUUUU / GGAAGAGCAGAGCCTTGGTCTCNNNNNNNN / NNNNNNNNGAGACCAAGGCTCTGCTCTTCC [T2 sgRNA 38 V1 ; T2 protospacer + 8N PAM library (pbPOS T2)]” here?
**A.** Its activity (1-depletion score) is 0.97.

**Q.** With “GGAAGAGCAGAGCCUUGGUCUCGUUGUAGCUCCCUGUUAAUGAAAACUAACAGGUUACUACAAUAAGGUCUUAGGACCGCAAAGCUCUAUCGCCCUACAUCCGUAGGGCGAUAUCUUUUUAUACAUUUUUU / GGAAGAGCAGAGCCTTGGTCTCNNNNNNNN / NNNNNNNNGAGACCAAGGCTCTGCTCTTCC [T2 sgRNA 5 V1 ; T2 protospacer + 8N PAM library (pbPOS T2)]” as the sequence, how does the activity (1-depletion score) [3] read?
**A.** Its activity (1-depletion score) is 0.69.

**Q.** “GGAAGAGCAGAGCCUUGGUCUCGUUUUAGUUCUCGGACGAAAGUCCGAGAAUCUAAGAUAAAGCUAUAUGCUGUGGGGUUGCGUAUCCCCUUAUCGAACGUACUAAGAUGAGUUUCGGCUCAUCUUUUUU / GGAAGAGCAGAGCCTTGGTCTCNNNNNNNN / NNNNNNNNGAGACCAAGGCTCTGCTCTTCC [T2 sgRNA 37 V1 ; T2 protospacer + 8N PAM library (pbPOS T2)]” was tested. Which activity (1-depletion score) [4] did it give?
**A.** Its activity (1-depletion score) is 0.97.

From patent US20240425885
